Assay [1] relates to SKIN1. The assay can be described thus: Quantitative RT-PCR of SKIN1 mRNA in leaves of 2-week-old rice seedlings after stress or ABA. Format: in vivo. To be noted: 6 h after salt stress (200 mM NaCl). The protocol:
FIG. 9. The expression of SKIN is induced by various abiotic stresses and ABA, and SKINs promote the ABA sensitivity. (A) Total RNA was purified from leaves of 2-week-old rice seedlings that had been air dried, treated with 200 mM salt, incubated at 4° C., or treated with 1 μM ABA, or from embryos of seedlings grown underwater (hypoxia), for various lengths of time. RNAs were subjected to quantitative RT-PCR analysis using primers specific for SKIN1 and SKIN2. The highest mRNA level was set as 100%. The lowest mRNA level was assigned a value of 1× and mRNA levels of other samples were calculated relative to this value. Error bars indicate the SE for three replicate experiments. (B) Seeds of transgenic lines SKIN1-Ox(O3), SKIN1-Ri(R3), SKIN2-Ox(02) and SKIN2-Ri(R1) were germinated and grown in water containing various concentrations of ABA at 28° C. under a 14-h light/10-h dark cycle for 6 days. Lengths of shoots were measured. Error bars represent SE (n=8) at significance levels: * p<0.1, ** p<0.05. […]
Total RNA was extracted from leaves of rice seedlings with the Trizol reagent (Invitrogen) and treated with RNase-free DNase I (Promega, Madison, Wis.). […] The quantitative variation between different samples was evaluated by the delta-delta CT method, and the amplification of 18S ribosomal RNA was used as an internal control to normalize all data.

Assay [2] deals with αAmy3 SRC promoter. As to the kind of experiment: Barley aleurone transient expression assay, SRC-35Smp:Luc reporter (luciferase). Format: cell-based. The conditions noted are these: barley aleurones, 5 μM ABA or 400 mM sorbitol, 24 h. The protocol:
(§1) FIG. 21. ABA and sorbitol suppress the function of SnRK1A in activation of αAmy3 SRC promoter. Rice embryos and barley aleurones were transfected with reporter SRC-35Smp:Luc with or without effectors, incubated with or without ABA for 24 h, and assayed for luciferase activity. The luciferase activity in embryos or aleurones bombarded with the SRC-35S mp-Luc construct only and in +S medium was set to 1×, and other values were calculated relative to this value. Error bars indicate the SE for three replicate experiments. (A) Plasmid constructs. (B) Barley aleurones were transfected with effector Ubi:SnRK1A, Ubi:SKIN1 or Ubi:SKIN(Ri) alone and reporter SRC-35Smp:Luc, or co-transfected with effectors Ubi:SnRK1A and Ubi:SKIN or Ubi:SKIN(Ri) and reporter SRC-35Smp:Luc. (C) Rice embryos (upper panel) were transfected with or without Ubi:SnRK1A and incubated with or without 1 μM ABA or 50 mM sorbitol, and barley aleurones (lower panel) were transfected with or without Ubi:SnRK1A and incubated with 5 μM ABA or 400 mM sorbitol.
The barley aleurone/endosperm transient expression assays were performed as described (Hong et al., 2012). Each independent experiment consisted of three replicates, with six endosperms for each treatment, and was repeated three times with similar results. Luciferase and GUS activity assays were performed as described (Hong et al., 2012). […]

Assay [3] has as its system αAmy3 SRC promoter. The assay can be described thus: Rice embryo transient expression assay, SRC-35Smp:Luc reporter (luciferase). The conditions noted are these: 24 h; for Antagonism of SnRK1A function on αAmy3 SRC promoter: co-transfected with Ubi:SnRK1A, +S or −S. Type of assay: cell-based. As for the experimental part:
FIG. 3. The highly conserved GKSKSF domain (KSD) is essential for SKINs to antagonize the function of SnRK1A. Rice embryos were transfected with plasmids, incubated in medium with 100 mM glucose (+S) or without glucose (−S) for 24 h, and assayed for luciferase activity. The luciferase activity in rice embryos bombarded with the SRC-35S mp-Luc construct only and in +S medium was set to 1×, and other values were calculated relative to this value. Error bars indicate the SE for three replicate experiments. (A) Plasmid constructs. (B) Rice embryos were co-transfected with effector Ubi:SnRK1A, Ubi:SKIN1 or Ubi:SKIN(Ri) alone and reporter SRC-35Smp:Luc, or co-transfected with effectors Ubi:SnRK1A and Ubi:SKIN or Ubi:SKIN(Ri) and reporter SRC-35Smp:Luc. (C) Total cellular proteins were extracted from rice embryos transfected with Ubi:SnRK1A, Ubi:SKIN or Ubi:SnRK1A and Ubi:SKIN by particle bombardment and subjected to Western blot analysis using antibodies against SnRK1A and the HA tag fused to at the N-terminus of SKINs. (D) Rice embryos were co-transfected with effectors Ubi:SnRK1A and Ubi:SKIN1 (wild-type or truncated) and reporter SRC-35Smp:Luc. (E) Rice embryos were co-transfected with effectors Ubi:SnRK1A and Ubi:SKIN (wild-type, KSD deleted, or KSD replaced with 6 Ala) and reporter SRC-35Smp:Luc.
as §1
Rice embryos were prepared for particle bombardment as described (Chen et al., 2006). The rice embryos were bombarded with reporter, effectors and internal control at a ratio of 4:2:1 for single effector or 4:2:2:1 for two effectors. The internal control (Ubi::GUS) was used to normalize the reporter enzyme activity because different transformation efficiency might occur in each independent experiment. Bombarded rice embryos were divided into two halves, with half being incubated in MS liquid medium containing 100 mM Glc, and the other half grown in MS liquid containing 100 mM mannitol, for 24 h. Total proteins were extracted for embryos with a cell lysis buffer [0.1 M K-phosphate, pH 7.8, 1 mM EDTA, 10% glycerol, 1% triton X-100, and 7 mM β-mercaptoethanol]. GUS assay buffer [0.1 M Na-phosphate, 20 mM EDTA, 0.2% sarcosine, 0.2% Triton X-100, and 20 mM β-mercaptoethanol] was used for GUS activity assay. The activity assay of GUS and luciferase were described elsewhere (Lu et al., 1998). All bombardments were repeated at least three times.

Assay [4] concerns the target T1, GAD-SnRK1A (full-length SnRK1A 1-505 fused to the Gal4 activation domain) (rice, UniProt Q852Q2 1-505).
T1 construct: range 1-505
T1 sequence (looked up): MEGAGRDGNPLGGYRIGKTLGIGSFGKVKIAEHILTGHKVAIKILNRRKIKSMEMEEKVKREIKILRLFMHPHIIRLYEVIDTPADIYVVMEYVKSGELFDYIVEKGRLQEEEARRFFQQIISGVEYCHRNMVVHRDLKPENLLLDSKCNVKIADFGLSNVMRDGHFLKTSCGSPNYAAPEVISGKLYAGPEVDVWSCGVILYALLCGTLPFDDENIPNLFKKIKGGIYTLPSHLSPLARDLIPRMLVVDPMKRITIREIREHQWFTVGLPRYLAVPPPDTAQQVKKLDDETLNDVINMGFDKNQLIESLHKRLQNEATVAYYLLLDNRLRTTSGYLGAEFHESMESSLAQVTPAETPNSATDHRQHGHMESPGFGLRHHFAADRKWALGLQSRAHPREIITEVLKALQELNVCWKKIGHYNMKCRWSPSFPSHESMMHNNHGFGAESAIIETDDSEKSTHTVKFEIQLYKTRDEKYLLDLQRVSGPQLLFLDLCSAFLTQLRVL
As to the kind of experiment: yeast two-hybrid, GBD-SKIN1 truncation with GAD-SnRK1A. An excerpt: FIG. 14. The N-terminal amino acids 1-83 of SKIN1 interact with the kinase and autoinhibitory domains of SnRK1A in yeast. (A) Plasmid constructs ADH1:GAD-SnRK1A and ADH1:GBD-SKIN1 (wild type or deletion at N- or C-terminus) were used as effectors, and Mel1:LacZ, Mel1:Mel1 and Gal1:HIS3 were used as reporters. (B) The N-terminus of SKIN1 interacts with SnRK1A in the yeast two-hybrid assays. (C) The kinase domain (KD) and auto-inhibitory domain (AID) of SnRK1A interact with SKIN1 and SKIN2. Yeast strain AH109 containing GAD-SnRK1A or GAD alone (-) was mated with yeast strain Y187 containing various GBD-SKIN1 constructs or GBD alone (-). The interaction between p53 and large T-antigen (T-Ag) was used as a positive control.

Take `[Cl-].[Na+]` [salt, NaCl]: the “Induction of SKIN1 mRNA accumulation” value in assay [1] is listed as ≤ 2.3 fold.
`OC[C@@H](O)[C@@H](O)[C@H](O)[C@@H](O)CO` [sorbitol]: the “Effect on αAmy3 SRC promoter (luciferase activity), alone and SnRK1A-activated” value in assay [2] was “suppressed”; in assay [3] (rice embryos, 1 μM ABA or 50 mM sorbitol) it was “suppressed”.

B1: GBD-SKIN1 84-159 (other)
chain: MKLLSSIEQACDICRLKKLKCSKEKPKCAKCLKNNWECRYSPKTKRSPLTRAHLTEVESRLERLEQLFLLIFPREDLDMILKMDSLQDIKALLTGLFVQDNVNKDAVTDRLASVETDMPLTLRQHRISATSSSEESSNKGQRQLTVSVESKLKAEDEQVGLGCLDALEESLPIKRGLSNFYAGKSKSFTSLAEATASPAAAANELAKPENPFNKRRRILATWS
Turning to B1, the binding result in assay [4] is “no binding”.

B2: GBD-SKIN1 160-259 (other)
chain: MKLLSSIEQACDICRLKKLKCSKEKPKCAKCLKNNWECRYSPKTKRSPLTRAHLTEVESRLERLEQLFLLIFPREDLDMILKMDSLQDIKALLTGLFVQDNVNKDAVTDRLASVETDMPLTLRQHRISATSSSEESSNKGQRQLTVSRRASCSSLATATYLPPLLAPDHAVAEGDEGEEEDDDSDDDERQHRGKNGGRRESAAPPLPLPPPRLTLHTQMGGMVRRNGTFRSPRSLSLSDLQNSGGSC
As to B2, the binding result in assay [4] is on record as “no binding”. Besides, the “Antagonism of SnRK1A function on αAmy3 SRC promoter” value in assay [3] is recorded as “did not antagonize”.

B3: SKIN1(1-83): truncated SKIN1 containing amino acids 1-83 (protein)
chain: MKLLSSIEQACDICRLKKLKCSKEKPKCAKCLKNNWECRYSPKTKRSPLTRAHLTEVESRLERLEQLFLLIFPREDLDMILKMDSLQDIKALLTGLFVQDNVNKDAVTDRLASVETDMPLTLRQHRISATSSSEESSNKGQRQLTVSMSTAVADVPPAAAYGFPGSAKRGKPEEVVVLMGKRRNEGFFIEEEEEEEEVLTESSSIGAPSPASSSIGENSGEEEGGDDEEE
As to B3, in assay [3], the “Antagonism of SnRK1A function on αAmy3 SRC promoter” value is listed as “did not antagonize”.

B4: SnRK1A: rice Snf1-related protein kinase 1A, overexpressed from Ubi:SnRK1A effector (protein)
chain: MEGAGRDGNPLGGYRIGKTLGIGSFGKVKIAEHILTGHKVAIKILNRRKIKSMEMEEKVKREIKILRLFMHPHIIRLYEVIDTPADIYVVMEYVKSGELFDYIVEKGRLQEEEARRFFQQIISGVEYCHRNMVVHRDLKPENLLLDSKCNVKIADFGLSNVMRDGHFLKTSCGSPNYAAPEVISGKLYAGPEVDVWSCGVILYALLCGTLPFDDENIPNLFKKIKGGIYTLPSHLSPLARDLIPRMLVVDPMKRITIREIREHQWFTVGLPRYLAVPPPDTAQQVKKLDDETLNDVINMGFDKNQLIESLHKRLQNEATVAYYLLLDNRLRTTSGYLGAEFHESMESSLAQVTPAETPNSATDHRQHGHMESPGFGLRHHFAADRKWALGLQSRAHPREIITEVLKALQELNVCWKKIGHYNMKCRWSPSFPSHESMMHNNHGFGAESAIIETDDSEKSTHTVKFEIQLYKTRDEKYLLDLQRVSGPQLLFLDLCSAFLTQLRVL
modifications: left off: large carriers
For B4, the “αAmy3 SRC promoter activity on overexpression of the effector” value in assay [3] (100 mM glucose (+S) or without glucose (−S)) is on record as “enhanced”.

B5: GBD-SKIN1 84-259 (other)
chain: MKLLSSIEQACDICRLKKLKCSKEKPKCAKCLKNNWECRYSPKTKRSPLTRAHLTEVESRLERLEQLFLLIFPREDLDMILKMDSLQDIKALLTGLFVQDNVNKDAVTDRLASVETDMPLTLRQHRISATSSSEESSNKGQRQLTVSVESKLKAEDEQVGLGCLDALEESLPIKRGLSNFYAGKSKSFTSLAEATASPAAAANELAKPENPFNKRRRILATWSRRASCSSLATATYLPPLLAPDHAVAEGDEGEEEDDDSDDDERQHRGKNGGRRESAAPPLPLPPPRLTLHTQMGGMVRRNGTFRSPRSLSLSDLQNSGGSC
In the case of B5, the binding result in assay [4] is reported as “no binding”.

(Values after patent US20180273970A1, “PLASMID, TRANSFORMED PLANT CELL AND TRANSGENIC PLANT COMPRISING THE SAME, AND METHODS FOR PREPARING A TRANSGENIC PLANT AND FOR INCREASING YIELD OF A PLANT UNDER ABIOTIC STRESSES” (Academia Sinica, priority 2014, published 2018).)
